Results from patent US7718774 (MacroGenics, dated 2010).

Target: T1, His-tagged 2Ig-B7H3 (R&D Systems) (UniProt Q5ZPR3-2 29-245, limits assumed)
T1 construct: the 2Ig form is an isoform of it; also called 2Ig-B7H3(His); xHis 2Ig (when captured by mouse anti-poly His antibody); not shown: His tag
T1 sequence (looked up): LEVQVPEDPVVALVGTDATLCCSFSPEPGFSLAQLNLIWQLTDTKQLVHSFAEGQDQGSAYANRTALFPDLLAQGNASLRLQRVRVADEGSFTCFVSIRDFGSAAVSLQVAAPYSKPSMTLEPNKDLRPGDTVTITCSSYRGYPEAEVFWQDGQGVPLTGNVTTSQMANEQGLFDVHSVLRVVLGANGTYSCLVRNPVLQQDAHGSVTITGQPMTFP
Experiment: ELISA, 5 µg/ml 2Ig-B7H3(His) captured by mouse anti-poly His antibody, streptavidin-HRP
Description: To further investigate mu-anti-TES binding to 4Ig-B7H3, ELISA crosslinking experiments with a His-tagged 2Ig-B7H3 (R&D Systems) were performed. 5 µg/ml of a capture antibody, mouse anti-poly His antibody, was coated on a 96-well plate as a control, a no coat well (naked well) was also used. The wells with the capture antibody were then blocked with HBSS+1% BSA. 5 µg/ml of 2Ig-B7H3(His) or 4Ig-B7H3(His) was introduced into naked wells or capture antibody-coated wells. As a control, 5 µg/ml of 2Ig-B7H3(Fc) was introduced into naked wells. The plate was then blocked again with HBSS+1% BSA. Then […] of biotinylated mu-anti-TES7, BLA8, PA20 or STO5 (another anti-B7H3 antibody that only recognizes the 4Ig form of B7H3) was introduced into the plate. The bound biotinylated antibodies were then detected with streptavidin-HRP using standard protocols.

binding result: no binding
B1: mu-anti-TES7 (antibody, V domains shown)
VH: QVQLQQSGPELVKPGTSVRISCKASGYTFTSYYIHWVKQRPGQGLEWIGWIYPGNVNTKYNENFKGKATLTADKSSSTAYMQLSSLTSEDSAVYFCARGGYFFDQWGQGTTLTVSS
VL: DVQITQSPSYLAASPGETITVNCRASESISKYLAWYQEKPGKTNKLLIYSGSTLQSGIPSRFSGSGSGSDFTLTISSLEPEDFAMYYCHQHNEFPLTFGAGTKLELK
notes: Mouse monoclonal IgG purified from hybridoma supernatant on protein G; also called mouse anti-huTES7 antibody; murine anti-TES7 antibody
